# Measurements reported in patent US20210292396A1.
# Values joined by “and” are separate entries in the source; they are usually repeats but may differ in a detail not shown here. Identical values can stand only once.
# B1: ePGT121.15.H2.L1 (antibody, V domains shown)
# VH: QMQLQESGPGLVKPGETLSLTCSVSGASISSSYWSWLRETPGKGLEWIGYTHHSGDTNYAPSLKSRVHLGLHPSKNQVSLSLTSVTAADTAVYYCARTLHGRRIYGVVAFNEWFTYFYWEVWGKGTQVTVSS
# VL: SDISVAPGETVRISCGGESIGSRAVQWYQHRAGQAPKLIIYNNQDRPPGIPERFSGSPDIDFGTTATLTITNVEAGDEATYYCHIWDSRRPTNWVFGGGTTLTVL
# What was measured:
# Test in all cases: cell-based or functional assay
# [1] = biological target: HIV Env of isolate CAP210.2.00.E8 (HIV)
# [2] = biological target: HIV Env of isolate 0815.v3.c3 (HIV)
# [3] = biological target: HIV Env of isolate P1981_C5_3 (HIV)
# [4] = biological target: HIV Env of isolate 6244_13_B5_4576 (HIV)
# [5] = biological target: HIV Env of isolate ZM53M.PB12 (HIV)
# [6] = biological target: HIV Env of isolate X1254_c3 (HIV)
# [7] = biological target: HIV Env of isolate ZM135M.PL10a (HIV)
# [8] = biological target: HIV Env of isolate WITO4160.33 (HIV)
# [9] = biological target: HIV Env of isolate 6540.v4.c1 (HIV)
# [10] = biological target: HIV Env of isolate CAAN5342.A2 (HIV)
# [11] = biological target: HIV Env of isolate AC10.0.29 (HIV)
# [12] = biological target: HIV Env of isolate ZM247v1(Rev-) (HIV)
# [13] = biological target: HIV Env of isolate 0260.v5.c36 (HIV)
# [14] = biological target: HIV Env of isolate CAP45.2.00.G3 (HIV)
# [15] = biological target: HIV Env of isolate T250-4 (HIV)
# [16] = biological target: HIV Env of isolate BJOX028000.10.3 (HIV)
# [17] = biological target: HIV Env of isolate ZM109F.PB4 (HIV)
# [18] = biological target: HIV Env of isolate Ce2060_G9 (HIV)
# [19] = biological target: HIV Env of isolate T211-9 (HIV)
# [20] = biological target: HIV Env of isolate 249M_B10 (HIV)
# [21] = biological target: HIV Env of the 113-member cross-clade virus panel (Table 6)
# [22] = biological target: HIV Env of isolate T255-34 (HIV)
# [23] = biological target: HIV Env of isolate Du156.12 (HIV)
# [24] = biological target: HIV Env of isolate CNE52 (HIV)
# [25] = biological target: HIV Env of isolate 0330.v4.c3 (HIV)
# [26] = biological target: HIV Env of isolate 1054_07_TC4_1499 (HIV)
# [27] = biological target: HIV Env of isolate 1056_10_TA11_1826 (HIV)
# [28] = biological target: HIV Env of isolate ZM214M.PL15 (HIV)
# [29] = biological target: HIV Env of isolate 1006_11_C3_1601 (HIV)
# [30] = biological target: HIV Env of isolate CNE5 (HIV)
# [31] = biological target: HIV Env of isolate ZM249M.PL1 (HIV)
# [32] = biological target: HIV Env of isolate T278-50 (HIV)
# [33] = biological target: HIV Env of isolate RHPA4259.7 (HIV)
binder,measurement,setting,value
B1,neutralization (Table 6 value),[1],0.0207
same,neutralization (Table 6 value),[2],0.000394
same,neutralization (Table 6 value),[3],0.000449
same,neutralization (Table 6 value),[4],0.00689
same,neutralization (Table 6 value),[5],0.00177
same,neutralization (Table 6 value),[6],0.00235
same,neutralization (Table 6 value),[7],0.122
same,neutralization (Table 6 value),[8],0.00428 and 0.00241
same,neutralization (Table 6 value),[9],0.652
same,neutralization (Table 6 value),[10],0.00112
same,neutralization (Table 6 value),[11],0.00196
same,neutralization (Table 6 value),[12],0.000909
same,neutralization (Table 6 value),[13],0.00199
same,neutralization (Table 6 value),[14],9e-06
same,neutralization (Table 6 value),[15],0.00084
same,neutralization (Table 6 value),[16],0.00577
same,neutralization (Table 6 value),[17],0.873
same,neutralization (Table 6 value),[18],0.0132
same,neutralization (Table 6 value),[19],0.00508
same,neutralization (Table 6 value),[20],0.00271
same,Breadth,[21],77%
same,GeoMean,[21],0.004
same,neutralization (Table 6 value),[22],0.00375 and 0.00245
same,neutralization (Table 6 value),[23],0.000443
same,neutralization (Table 6 value),[24],0.0469
same,neutralization (Table 6 value),[25],0.0053
same,neutralization (Table 6 value),[26],0.00114
same,neutralization (Table 6 value),[27],0.000864
same,neutralization (Table 6 value),[28],0.00727
same,neutralization (Table 6 value),[29],0.00175
same,neutralization (Table 6 value),[30],0.743
same,neutralization (Table 6 value),[31],0.00837
same,neutralization (Table 6 value),[32],0.0127
same,neutralization (Table 6 value),[33],0.00156
